This is an account of results in article PMC8642555 (Nature Communications, 2021).

Residue numbers refer to the chain shown, from its start. In names and notes the source's numbering stands.

Assay [1] deals with IgE. Kind of assay: binding studies with purified scFvs (method not given; Supplementary Fig. 3c). The conditions noted are these: read off a plot; for koff: parent: est. 2.5e-3; for kon: parent: est. 1.0e6.
Assay [2] deals with disulfide locked IgE-Fc2–4(G335C):FcεRIα(W156C) complex (UniProt P12319). Kind of assay: BLI; single cycle kinetics; locked complex captured on Ni-NTA tips, coupled with EDC/NHS, nickel chelated with EDTA; anti-IgE agents in a twofold serial dilution from 1600 nM to 100 nM; 2:1 SCK binding model (Clamp-XP).
The target in assay [3] is IgE. Kind of assay: binding kinetics (method not named in the legend or citing paragraphs; Supplementary Fig. 1e). The conditions noted are these: parent: est. 2.8e-3 s-1; read off a plot.
The target in assay [4] is bIgE-Fc2–4:FcεRIα-Ova complex (UniProt P12319). The assay can be described thus: bead-based disruption assay. The conditions noted are these: parent: est. 20 µM; read off a plot.
For the next assay, the target named is FcεRI (Homo sapiens) (UniProt P12319). The conditions noted are these: cited from earlier work.
Assay [5] has as its target T1, biotinylated-IgE-Fc2–4 (human, biotin (Sulfo-NHS-LC-Biotin)).
T1 construct: IgE heavy chain constant region, human, Fc fragment with the domains Cε2, Cε3 and Cε4; the results speak of the KD for free IgE-Fc2–4; also called bIgE-Fc2–4; biotin-IgE-Fc2–4; source: labelled with Sulfo-NHS-LC-Biotin
T1 chain: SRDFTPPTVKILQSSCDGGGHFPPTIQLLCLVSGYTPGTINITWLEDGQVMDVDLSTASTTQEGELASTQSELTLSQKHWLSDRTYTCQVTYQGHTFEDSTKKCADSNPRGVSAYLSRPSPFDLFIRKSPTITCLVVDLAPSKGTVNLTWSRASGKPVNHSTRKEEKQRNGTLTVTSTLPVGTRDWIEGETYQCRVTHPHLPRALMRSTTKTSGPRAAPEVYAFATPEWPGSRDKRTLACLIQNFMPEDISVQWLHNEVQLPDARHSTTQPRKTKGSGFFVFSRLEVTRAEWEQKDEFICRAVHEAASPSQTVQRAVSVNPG
Kind of assay: BLI; Octet-Red 96; biotin-labeled human IgE on streptavidin tips (~0.5 nm); serial dilution of anti-IgE agents from the lowest concentration (single cycle kinetics); 1:1 SCK model. The conditions noted are these: both partners purified. Background: In BLI a coated tip is dipped into the sample, and binding shifts an interference pattern.

Assay [6] has as its target T2, biotinylated IgE-Fc2–4 (Homo sapiens, UniProt P01854, biotin (Sulfo-NHS-LC-Biotin labelling)).
T2 construct: human IgE heavy chain constant region, Fc fragment with the domains Cε2 to Cε4 (IgE-Fc2–4); PDB 2Y7Q is a cited IgE-Fc2–4:FcεRIα structure and may be another construct; also called bIgE-Fc2–4; biotin-IgE-Fc2–4
The assay can be described thus: BLI; Octet-Red 96; biotin-labeled human IgE immobilised on streptavidin tips (~0.5 nm); serial dilution of anti-IgE agents from the lowest concentration (single-cycle kinetics); 1:1 SCK binding model. The conditions noted are these: both partners purified.

For assay [7], the target named is T1, biotinylated-IgE-Fc2–4. The assay can be described thus: bead-based disruption assay (flow cytometry of beads); FcεRIα-Ova coupled polystyrene beads loaded with 500 nM biotin-IgE-Fc2–4 and washed; serial dilution of anti-IgE agent, 30 min, room temperature, 900 rpm; fixed; remaining bIgE-Fc2–4 stained with PE/Cy5-streptavidin; ID50 from dose response fit. The conditions noted are these: both partners purified. A general note: A flow cytometer gives signals particle by particle.

Assay [8] addresses T3, biotinylated IgE-Fc2–4 (human, UniProt P01854 106-427, biotin (Sulfo-NHS-LC-Biotin labelling)).
T3 construct: human IgE heavy chain constant region, Fc fragment with the domains Cε2 to Cε4 (IgE-Fc2–4); PDB 2Y7Q is a cited IgE-Fc2–4:FcεRIα structure and may be another construct; also called bIgE-Fc2–4; biotin-IgE-Fc2–4
Kind of assay: BLI; Octet-Red 96; biotin-labeled human IgE immobilised on streptavidin tips (~0.5 nm); serial dilution of anti-IgE agents from the lowest concentration (single-cycle kinetics); 1:1 SCK binding model. The conditions noted are these: both partners purified.

Assay [9] deals with Biotinylated full length recombinant IgE (human) (UniProt P01854). The assay can be described thus: BLI; biotinylated full length recombinant IgE on streptavidin (SA) tips; single cycle kinetics, five 100 s associations, four 100 s dissociations and a final 600 s dissociation; analyte in two-fold serial dilutions from 50 nM to 1.56 nM; Octet Red 96; 1:1 SCK model in BiaEvaluation 3.0.
Chain of Biotinylated full length recombinant IgE (human) (P01854 whole entry, looked up): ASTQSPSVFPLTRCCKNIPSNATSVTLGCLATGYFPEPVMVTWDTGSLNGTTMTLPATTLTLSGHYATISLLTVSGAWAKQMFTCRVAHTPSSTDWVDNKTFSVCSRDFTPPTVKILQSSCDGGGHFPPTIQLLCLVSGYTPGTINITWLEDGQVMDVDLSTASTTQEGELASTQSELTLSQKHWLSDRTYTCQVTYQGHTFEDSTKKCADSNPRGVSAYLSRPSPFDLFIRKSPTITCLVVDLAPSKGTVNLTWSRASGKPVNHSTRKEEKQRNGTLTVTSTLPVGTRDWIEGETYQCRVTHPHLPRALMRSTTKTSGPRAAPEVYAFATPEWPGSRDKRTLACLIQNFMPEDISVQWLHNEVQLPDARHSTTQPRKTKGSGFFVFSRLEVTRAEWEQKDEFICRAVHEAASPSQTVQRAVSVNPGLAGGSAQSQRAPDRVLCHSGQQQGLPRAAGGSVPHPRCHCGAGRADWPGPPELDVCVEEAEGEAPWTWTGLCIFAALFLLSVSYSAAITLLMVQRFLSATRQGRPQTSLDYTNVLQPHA

Chain of FcεRI (Homo sapiens) (P12319 26-257): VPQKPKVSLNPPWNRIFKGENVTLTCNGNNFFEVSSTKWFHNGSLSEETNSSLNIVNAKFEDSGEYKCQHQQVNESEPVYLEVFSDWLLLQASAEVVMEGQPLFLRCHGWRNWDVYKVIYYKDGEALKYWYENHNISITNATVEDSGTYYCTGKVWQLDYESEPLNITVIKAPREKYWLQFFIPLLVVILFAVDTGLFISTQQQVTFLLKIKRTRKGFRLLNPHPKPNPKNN
Chain of bIgE-Fc2–4:FcεRIα-Ova complex (P12319 whole entry, looked up, tested part not stated, one chain of several): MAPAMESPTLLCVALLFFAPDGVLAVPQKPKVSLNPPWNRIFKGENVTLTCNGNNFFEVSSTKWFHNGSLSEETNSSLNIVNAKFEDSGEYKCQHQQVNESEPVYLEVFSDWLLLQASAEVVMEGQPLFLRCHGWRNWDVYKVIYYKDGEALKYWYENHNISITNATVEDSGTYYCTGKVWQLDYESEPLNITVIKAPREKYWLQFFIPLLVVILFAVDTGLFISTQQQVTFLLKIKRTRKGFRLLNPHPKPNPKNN

The koff is the rate constant with which the complex falls apart. One may read the kon as the rate constant with which the complex forms. Take “omalizumab single chain variable fragment (scFv) VH:G15D; VH:I52V; VL:Y31S”: in the assay with IgE [1], the dissociation rate constant (koff) worked out at 0.002 s⁻¹ and the kon amounted to 1e+06 M⁻¹ s⁻¹.
Turning to “HAE scFv (high-affinity omalizumab variant)”, in assay [2], the KD of the high affinity site (2:1 model) stood at 2.86 nM and the KD of the low affinity site (2:1 model) came to 25.8 nM.
As for “omalizumab single chain variable fragment (scFv) VH:S28N; VH:T53K; VH:D55S; VH:S57E; VH:N59K; VL:Q27K; VL:S28P; VL:Y31G; VL:D32E; VL:M37L”, in the assay with IgE [1], the koff came to 0.00026 s⁻¹ and the on-rate constant (kon) came out at 1.7e+06 M⁻¹ s⁻¹.
In the case of “omalizumab single chain variable fragment (scFv) scFvCC (cysteines for a disulfide bond at the VH:VL interface; positions not printed)”, in the assay with IgE [3], the koff was 0.013 s⁻¹. Moreover, in assay [4], the other: ID50 was determined as 40000 nM.
With “omalizumab single chain variable fragment (scFv) VH:G15D; VH:A41T; VH:I52V; VH:D74G; VH:R98K; VH:S100N; VH:H101N; VL:Q27K; VL:Y31S; VL:K46R”, in the assay with IgE [1], the koff stood at 0.0016 s⁻¹ and the on-rate (kon) is 2e+06 M⁻¹ s⁻¹.
A word on the Kd: it is a measure of binding affinity in units of concentration. For IgE (from UniProt P01854), in the assay with FcεRI (Homo sapiens), the Kd was 0.1 nM.

B1: clone 16 scFv (scFv, V domains shown)
VH: EVQLVESGGGLVQPDGSLRLSCAVSGYNITSGYSWNWIRQTPGKGLEWVASVTYDGSTNYNPSVKGRITISRDGSKNTFYLQMNSLRAEDTAVYYCAKGNNYFGHWHFAVWGQGTLVTVSS
VL: DIQLTQSPSSLSASVGDRVTITCRASKPVDGEGDSYLNWYQQKPGKAPKLLIYAASYLESGVPSRFSGSGSGTYFTLTISSLQPEDFATYYCQQSHEDPYTFGQGTKVEIK
notes: VH of clone 16, from a shuffled library of C02 and HAE; most clones used the C02-VH with sporadic further mutations; VL of clone 16, from a shuffled library of C02 and HAE; most clones used the HAE-VL with sporadic further mutations
Regarding B1, in the assay with biotinylated-IgE-Fc2–4 [5], the binding result is listed as “binds”.

B2: clone 7 scFv (C02 with VL D74H) (scFv, V domains shown)
VH: B1 VH
VL: B1 VL with P28S, G31S, E32D, L37M, K46R, Y74H
notes: as the scFv of C02 (Sm8), identical to it beyond D74H in the E-strand of the VL domain; cryo-EM structure with the locked IgE-Fc2–4:FcεRIα complex solved here; D74 counts on the VL domain
For B2, in the assay with biotinylated IgE-Fc2–4 [6], the Kd worked out at 0.581 nM, the off-rate constant (koff) was 0.00104 s⁻¹ and the kon turned out to be 1.79e+06 M⁻¹ s⁻¹.

B3: clone 7 scFv (scFv, V domains shown)
VH: B1 VH
VL: B1 VL with P28S, G31S, E32D, L37M, K46R, Y74H
notes: VH as the VH of C02; VL as the VL of C02 with D74H in the E-strand; Identical to C02 beyond D74H
Turning to B3, in the assay with biotinylated-IgE-Fc2–4 [7], the “fold increase of ID50 against C02” value came out at 5 fold.

B4: clone A4 scFv (shuffled C02/HAE omalizumab variant with VL D74G) (scFv, V domains shown)
VH: B1 VH
VL: B1 VL with Y74G
notes: from a shuffled library of C02 (Sm8) and HAE (Sm7); D74G in the E-strand of VL; D74 counts on the VL domain
Regarding B4, in the assay with biotinylated IgE-Fc2–4 [6], binding was put at a Kd of 0.377 nM, the dissociation rate constant (koff) is 0.000565 s⁻¹ and the kon stood at 1.5e+06 M⁻¹ s⁻¹.

B5: clone 16 scFv (shuffled C02/HAE omalizumab variant with VL D74Y) (scFv, V domains shown)
VH: B1 VH
VL: B1 VL
notes: from a shuffled library of C02 (Sm8) and HAE (Sm7); D74Y in the E-strand of VL; D74 counts on the VL domain
In the assay with biotinylated IgE-Fc2–4 [6], B5 returned a Kd of 0.308 nM, a koff of 0.000448 s⁻¹ and an association rate constant (kon) of 1.45e+06 M⁻¹ s⁻¹.

B6: clone A4 scFv (scFv, V domains shown)
VH: B1 VH
VL: B1 VL with Y74G
notes: VH of clone A4, from a shuffled library of C02 and HAE; most clones used the C02-VH with sporadic further mutations; VL of clone A4, from a shuffled library of C02 and HAE; most clones used the HAE-VL with sporadic further mutations
As to B6, the binding result with biotinylated-IgE-Fc2–4 [5] is “binds”.

B7: DARPin E2_79 (designed binder)
chain: MRGSHHHHHHGSDLGKKLLEAARAGQDDEVRILTANGADVNANDYWGHTPLHLAAMLGHLEIVEVLLKNGADVNATGNTGRTPLHLAAWADHLEIVEVLLKHGADVNAQDKFGKTAFDISIDNGNEDLAEILQKL
Consider B7, for which, in the assay with biotinylated IgE-Fc2–4 [8], the Kd turned out to be 1.18 nM, the dissociation rate constant (koff) was 0.00212 s⁻¹ and the association rate constant (kon) was determined as 1.79e+06 M⁻¹ s⁻¹. In assay [9], the dissociation constant Kd was 1.18 nM, the koff came to 0.00212 s⁻¹ and the kon came to 1.79e+06 M⁻¹ s⁻¹.
